Source: patent US10335489B2, “Injectable solution at pH 7 comprising at least one basal insulin the pi of which is between 5.8 and 8.5 and a substituted co-polyamino acid” (ADOCIA, priority 2012, dated 2019)

Test: Precipitation of insulin glargine on addition to PBS/BSA mixture simulating the subcutaneous medium, centrifugation, RP-HPLC assay of supernatant
Assay type: physicochemical
Details: co-polyamino acid 1/insulin glargine/prandial insulin 75/25 composition added to 2 ml PBS/BSA
Description: The PBS/BSA mixture simulates the composition of the subcutaneous medium.
Centrifugation at 4000 rpm is carried out in order to separate the precipitate from the supernatant.
(§1) The PBS/BSA mixture simulates the composition of the subcutaneous medium. A precipitate appears.
as §1
This composition is added to 2 ml of PBS containing 20 mg/ml of BSA (bovine serum albumin). The PBS/BSA mixture simulates the composition of the subcutaneous medium. A precipitate appears. Centrifugation at 4000 rpm is carried out in order to separate the precipitate from the supernatant. […]
The PBS/BSA mixture simulates the composition of the subcutaneous medium. A precipitate appears. Centrifugation at 4000 rpm is carried out in order to separate the precipitate from the supernatant.
as §1

Human insulin (ActRapid ®): commercial solution of human insulin at 100 IU/ml
Precipitation of insulin glargine: yes
